Assay results: US12065466B2, “Methods and compositions for protein sequencing” (Quantum-Si Incorporated, priority 2020, dated 2024)

System: amino acid at a terminal position of a polypeptide
Assay: Amino acid binding preference of recognition proteins (Tables 1 and 2)
Conditions: Table 1, ClpS proteins; amino acid identity at a terminal position of a polypeptide; inferred from literature and/or demonstrated by the inventors
Source text: It should be appreciated that these sequences and other examples described herein are meant to be non-limiting, and recognition molecules in accordance with the application can include any homologs, variants thereof, or fragments thereof minimally containing domains or subdomains responsible for peptide recognition.

Molecule	Binding Pref.
PS570: PS372-homologous ClpS protein, SEQ ID NO: 84 (protein, listed as Leptospira congkakensis) MTGAGASQPSILEETEVRPRLSDGPWKVVLWDDDFHTYEYVIEMLMDVCQMPWEKAFQHAVEVDTRKKTIVFSGELEHAEFVHERILNYGPDPRMGSSKGSMTATLEQ	I, L, V
PS571: PS372-homologous ClpS protein, SEQ ID NO: 85 (protein, listed as Leptospira meyeri) MTSSGASQPSILEETERKPRLSDGPWKVVLWDDDFHTYEYVIEMLMDVCQMPWEKAFQHAVEVDTRKKTIVFFGELEHAEFVHERILNYGPDPRMGTSKGSMTATLEK	I, L, V
PS562: PS372-homologous ClpS protein, SEQ ID NO: 76 (protein, listed as Rubripirellula amarantea) MSDQQSMVAEPEVVVHTQDEKKLEKQNKRKKQPRYNVVLWDDTDHSYDYVVLMMKQLFHHPIETGFQIAKQVDKGGKAICLTTTMEHAELKRDQIHAFGKDDLIARCTGSMSATIEPVPE	I, L, V
PS574: PS372-homologous ClpS protein, SEQ ID NO: 88 (protein, listed as Gemmata obscuriglobus) MANATPTPDVVPEEETETRTRRQPPYAVVLHNDDTNTMDFVVTVLRKVFGYTVEKCVELMLEAHTQGKVAVWIGALEVAELKADQIKSFGPDPHVTKNGHPLGVTVEPAA	I, L, V
PS572: PS372-homologous ClpS protein, SEQ ID NO: 86 (protein, listed as Blastopirellula marina) MSSEELSLQTRPKRQPPFGVILHNDDLNSFDYVIDSIRKVFHYELEKCFQLTLEAHETGRSLLWTGTLEGAELKQELLLSCGPDPIMLDKGGLPLKVTLEELPQ	I, L, V
PS568: PS372-homologous ClpS protein, SEQ ID NO: 82 (protein, listed as Dehalococcoidia bacterium) MTTPSLPTRETEVEERTEVEPERLYHLVLLDDDQHSYQYVIEMLASIFGYGSEKAWTLARIVDTEGRAILETASHAQCERHQSQIHAYGADSRIPTSVGSMSAVIEEAGTPPQT	I, L, V
PS563: PS372-homologous ClpS protein, SEQ ID NO: 77 (protein, listed as Acidobacteria bacterium) MSSRSATAYPEVEDDTSDQLQPLYHVILLNDEDHTYDYVIEMLQKIFGFPESKAFSHAVEVDTKGTTILLTCDLEQAERKRDLIHSYGPDWRLPRSLGSMAAVVEPAAG	I, L, V
PS561: PS372-homologous ClpS protein, SEQ ID NO: 75 (protein, Roseimaritima sp. JC651) MAELQTAVVEPTTRPEQDEKQSQSRPKRQPRYNVILWDDPDHSYDYVIMMLKELFGHPRQRGHQMAEEVDTTGRVICLTTTMEHAELKRDQIHAYGSDEGITRCKGSMSASIEPVPE	I, L, V
PS565: PS372-homologous ClpS protein, SEQ ID NO: 79 (protein, Aquisphaera sp. JC650) MSEFDHEHSGDTSVADPIVTTKTAPKPQKHAENETETRRQPPYNVIILNDEEHTFDYVIELLCKVFRHSLATAQELTWRIHLTGRAVVLTTHKELAELKRDQVLAYGPDPRMSVSKGPLDCFIEPAPGG	I, L, V
atClpS2: Agrobacterium tumifaciens ClpS2, SEQ ID NO: 94 (protein, listed as Agrobacterium tumifaciens) MSDSPVDLKPKPKVKPKLERPKLYKVMLLNDDYTPREFVTVVLKAVFRMSEDTGRRVMMTAHRFGSAVVVVCERDIAETKAKEATDLGKEAGFPLMFTTEPEE	F, W, Y
atClpS2-V1 + C72S: ClpS protein, SEQ ID NO: 101 (protein) MSDSPVDLKPKPKVKPKLERPKLYKVMLLNDDYTPMSFVTVVLKAVFRMSEDTGRRVMMTAHRFGSAVVVVSERDIAETKAKEATDLGKEAGFPLMFTTEPEE	F, W, Y
atClpS2 C72S: ClpS protein, SEQ ID NO: 100 (protein) MSDSPVDLKPKPKVKPKLERPKLYKVMLLNDDYTPREFVTVVLKAVFRMSEDTGRRVMMTAHRFGSAVVVVSERDIAETKAKEATDLGKEAGFPLMFTTEPEE	F, W, Y
PS567: PS372-homologous ClpS protein, SEQ ID NO: 81 (protein, listed as Planctomycetaceae bacterium) MADYEDAGEDALEDDFDHGTVTVAPQKPEPKKQSENKRQANRQPRYNVLLWDSEDHTFEYVEKMLRELFGHIKKQCQIIAEQVDQEGRAVVLTTTLEHAELKRDQIHAYGKDQLEGSKGSMWSTIEAVD	I, L, V
PS577: PS372-homologous ClpS protein, SEQ ID NO: 91 (protein, listed as Tuwongella immobilis) MSASSSQPGTTTKPDLDIQPRLLPPFHVILENDEFHSMEFVIDTLRKVLGVSIERAYQLMMTAHESGQAIIWTGPKEVAELKYEQVIGFHEKRSDGRDLGPLGCRIEPAV	I, L, V
PS573: PS372-homologous ClpS protein, SEQ ID NO: 87 (protein, listed as Leptospira fluminis) MSQTPVIEETTVKDPVKTGGPWKVVLWDDDEHTYDYVIEMLMEVCVMTMEQAFHHAVEVDTQKKTVVYSGEFEHAEHIQELILEYGPDPRMAVSKGSMSATLEKS	I, L, V
PS560: PS372-homologous ClpS protein, SEQ ID NO: 74 (protein, listed as Planctomycetes bacterium) MTETITTPAERTQTQAEPRSDRAWLWNVVLLDDDEHTYEYVIRMLHTLFGMPVERAFRLAEEVDARGRAVVLTTHKEHAELKRDQVHAFGKDALIASCAGSMSAVLEPAECGSDDED	I, L, V
PS374: ClpS protein, SEQ ID NO: 7 (protein) MRWEDPLAAEPVTPGVAPVVEEETDAAVETPWRVILYDDDIHTFEEVILQLMKATGCTPEQGERHAWTVHTRGKDCVYQGDFFDCFRVQGVLREIQLVTEIEG	F, Y, W, L
atClpS1 C7S: ClpS protein, SEQ ID NO: 103 (protein) MIAEPISMQGEGDGEDGGTNRGTSVITRVKPKTKRPNLYRVLLLNDDYTPMEFVIHILERFFQKDREAATRIMLHVHQHGVGECGVFTYEVAETKVSQVMDFARQHQHPLQCVMEKK	F, W, Y, L
atClpS1 C7S, C84S, C112S: ClpS protein, SEQ ID NO: 104 (protein) MIAEPISMQGEGDGEDGGTNRGTSVITRVKPKTKRPNLYRVLLLNDDYTPMEFVIHILERFFQKDREAATRIMLHVHQHGVGESGVFTYEVAETKVSQVMDFARQHQHPLQSVMEKK	F, W, Y, L
PS376: ClpS protein, SEQ ID NO: 9 (protein) MPTNDLDLLEKQDVKIERPKMYQVVMYNDDFTPFDFVVAVLMQFFNKGMDEATAIMMQVHMQGKGICGVFPKDIAETKATEVMKWAKVEQHPLRLQVEAQA	F, W, L
PS569: PS372-homologous ClpS protein, SEQ ID NO: 83 (protein, listed as Planctomycetes bacterium) MYSKNQIKIYCSEDDKGQTATPLLEKKPKFAPLYHVILWDDNTHTYEYVIKLLMSLFRMTFEKAYQHTLEVDKKGRTICITTHLEKAELKQEQISNFGPDILMQNSKGPMSATIEPAN	I, L, V
PS575: PS372-homologous ClpS protein, SEQ ID NO: 89 (protein, listed as Leptospira kmetyi) MASTQTPDLNEITEESTKSTGGPWRVVLWDDNEHTYEYVIEMLMEICTMTVEKAFLHAVQVDQEKRTVVFSGEFEHAEHVQERILTYGADPRMSNSKGSMSATLEK	I, L, V
PS576: PS372-homologous ClpS protein, SEQ ID NO: 90 (protein, Leptospira interrogans) MASTQTPDLNEITEESTKSTGGPWRVVLWDDNEHTYEYVIEMLVEICMMTVEKAFLHAVQVDKEKRTVDFSGELEHAEHVQERILNYGADPRMSNSKGSMSATLER	I, L, V
PS566: PS372-homologous ClpS protein, SEQ ID NO: 80 (protein, listed as Planctomycetaceae bacterium) MSSPSSLDDVQVSTSRAKPANETRTRKQPPYAVIVENDDHHTFLYVIEALMKVCGHAPEKGFVLAQQIHTQGKAMVWSGTLELAELKRDQLRGFGPDNYAPRPVTFPLGVTIEPLP	I, L, V
PS578: PS372-homologous ClpS protein, SEQ ID NO: 92 (protein, listed as Planctomycetes bacterium) MSGTVVESKPRNSTQLAPRWKVIVHDDPVTTFDFVLGVLRRVFAKPPGEARRITREAHDTGSALVDVLALEQAEFRRDQAHSLARAEGFPLTLTLEPAD	I, L, V
PS564: PS372-homologous ClpS protein, SEQ ID NO: 78 (protein, Planctomycetes bacterium Poly21) MFEEVVSVAVAEPKTKKQSRTKPKRQPPYHVILWDDTDHTFDYVIKMMGELFRMPREKGYQLAKEVDTSGRAICMTTTLELAELKRDQIHAFGRDDASAHCKGSMSATIEPAEG	I, L, V
PS375: ClpS protein, SEQ ID NO: 8 (protein) MEAEPETKVLASIPGVGTSEPFRVVLFNDEEHSFDEVIFQIIKAVRCSRAKAEALTMEVHNSGRSIVYTGPIEQCIRVSAVLEEIELRTEIQS	F, L
